Data on one substance can be found in patent US20150306234.

In the data set the test system is T1, BDD FVIII mutein F2093C.
T1 sequence: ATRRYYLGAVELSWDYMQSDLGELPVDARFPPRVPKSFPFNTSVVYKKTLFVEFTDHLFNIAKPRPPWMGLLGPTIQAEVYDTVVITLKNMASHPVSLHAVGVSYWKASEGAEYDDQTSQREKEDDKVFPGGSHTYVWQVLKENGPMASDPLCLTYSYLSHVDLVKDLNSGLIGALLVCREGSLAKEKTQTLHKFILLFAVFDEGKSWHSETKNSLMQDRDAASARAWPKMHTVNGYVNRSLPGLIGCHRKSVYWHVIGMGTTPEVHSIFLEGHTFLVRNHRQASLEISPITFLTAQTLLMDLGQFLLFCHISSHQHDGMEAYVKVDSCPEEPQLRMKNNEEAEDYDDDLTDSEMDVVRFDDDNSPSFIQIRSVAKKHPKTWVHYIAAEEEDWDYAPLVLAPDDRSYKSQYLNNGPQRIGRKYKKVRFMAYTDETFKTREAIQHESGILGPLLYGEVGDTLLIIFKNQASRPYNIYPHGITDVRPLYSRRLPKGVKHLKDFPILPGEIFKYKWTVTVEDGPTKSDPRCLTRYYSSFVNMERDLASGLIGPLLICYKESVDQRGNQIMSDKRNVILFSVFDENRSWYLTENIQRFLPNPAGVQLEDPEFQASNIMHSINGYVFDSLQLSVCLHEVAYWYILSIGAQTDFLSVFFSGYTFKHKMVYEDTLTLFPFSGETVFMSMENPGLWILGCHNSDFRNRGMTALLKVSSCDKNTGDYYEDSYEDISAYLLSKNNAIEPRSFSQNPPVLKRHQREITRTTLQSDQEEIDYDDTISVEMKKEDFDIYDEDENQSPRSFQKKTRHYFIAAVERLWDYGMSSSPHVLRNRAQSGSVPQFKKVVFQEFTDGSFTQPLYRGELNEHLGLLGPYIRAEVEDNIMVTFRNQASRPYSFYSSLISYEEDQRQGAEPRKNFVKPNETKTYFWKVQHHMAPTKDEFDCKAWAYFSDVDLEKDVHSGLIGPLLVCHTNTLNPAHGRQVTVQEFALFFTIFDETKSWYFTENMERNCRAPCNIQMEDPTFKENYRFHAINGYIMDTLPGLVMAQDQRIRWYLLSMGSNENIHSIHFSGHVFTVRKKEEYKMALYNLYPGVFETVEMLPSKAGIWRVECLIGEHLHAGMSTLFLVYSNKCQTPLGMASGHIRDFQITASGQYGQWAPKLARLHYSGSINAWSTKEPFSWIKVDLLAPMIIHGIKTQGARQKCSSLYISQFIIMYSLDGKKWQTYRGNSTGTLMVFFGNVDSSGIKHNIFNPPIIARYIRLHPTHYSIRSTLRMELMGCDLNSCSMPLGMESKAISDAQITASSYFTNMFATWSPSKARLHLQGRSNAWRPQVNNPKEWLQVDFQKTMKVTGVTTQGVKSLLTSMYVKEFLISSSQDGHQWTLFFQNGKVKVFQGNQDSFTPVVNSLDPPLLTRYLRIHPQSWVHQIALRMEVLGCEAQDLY

“thrombin (Haematologic Technologies, Essex Junction, Vt.)”: the “thrombin cleavage, SDS-PAGE with silver staining” value was “Thrombin digestion of the muteins and control produced the expected cleavage fragments”.
